Experimental data reported in patent US20230391845A1, “GLP-1, GIP AND GLUCAGON RECEPTOR TRIPLE AGONISTS” (priority 2020, published 2023).
Where no end group is shown, it is not given here. [ ]: non-standard residue; d: D form. Aib = CC(C)(N)C(=O)O

T1: human glucose-dependent insulinotropic polypeptide receptor (human, UniProt P48546 22-466)
T1 sequence (looked up): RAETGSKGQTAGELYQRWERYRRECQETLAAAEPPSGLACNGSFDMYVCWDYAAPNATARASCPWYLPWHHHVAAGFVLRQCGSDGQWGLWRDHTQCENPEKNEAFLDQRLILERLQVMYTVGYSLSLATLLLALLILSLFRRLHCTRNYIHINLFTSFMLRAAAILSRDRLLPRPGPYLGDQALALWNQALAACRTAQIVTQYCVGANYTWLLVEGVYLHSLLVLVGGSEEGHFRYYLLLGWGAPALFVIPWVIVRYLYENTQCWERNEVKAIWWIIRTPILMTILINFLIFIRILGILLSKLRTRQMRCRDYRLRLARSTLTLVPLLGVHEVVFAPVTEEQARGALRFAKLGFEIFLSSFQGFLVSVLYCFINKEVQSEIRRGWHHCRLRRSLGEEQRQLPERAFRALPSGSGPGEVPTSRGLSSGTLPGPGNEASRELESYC


How the values were obtained:
Experiment in all cases: cell-based or functional assay
[1] = target: human glucagon-like peptide 1 receptor (human, UniProt P43220 24-463)
[2] = target: T1, human glucose-dependent insulinotropic …
human glucagon receptor = human glucagon receptor (human, UniProt P47871 26-477)
human glucagon receptor, sequence (P47871 26-477): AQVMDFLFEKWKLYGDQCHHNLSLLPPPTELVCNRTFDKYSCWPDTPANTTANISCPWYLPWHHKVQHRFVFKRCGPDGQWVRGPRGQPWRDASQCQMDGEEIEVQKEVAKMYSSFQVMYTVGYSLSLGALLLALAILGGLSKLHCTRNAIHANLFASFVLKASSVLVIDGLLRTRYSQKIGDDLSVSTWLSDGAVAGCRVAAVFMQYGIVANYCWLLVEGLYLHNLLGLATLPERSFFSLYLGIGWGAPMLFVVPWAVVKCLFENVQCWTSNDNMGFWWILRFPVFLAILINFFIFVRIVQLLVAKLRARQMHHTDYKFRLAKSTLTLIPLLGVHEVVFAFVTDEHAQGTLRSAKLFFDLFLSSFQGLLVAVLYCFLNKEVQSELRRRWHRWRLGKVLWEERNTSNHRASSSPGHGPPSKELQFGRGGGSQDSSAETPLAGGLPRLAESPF

Binder	hGLP-1R CRE Luc EC50 (pM) [1]	hGIPR CRE Luc EC50 (pM) [2]	hGcgR CRE Luc EC50 (pM) (human glucagon receptor)
H[Aib]HGTFTSDYSYYLEKQYA[Aib]EFVQWLLEGGPSSGAPPPS-NH2 (not fully specified (residue 16); printed as H-Aib-HGTFTSDYSYYLE-K[(2S)-2-amino-6-[[(2S)-2-amino-6-[[(4S)-4-carboxy-4-(19-carboxynonadecanoylamino)butanoyl]amino]hexanoyl]amino]hexanoyl]-QYA-Aib-EFVQWLLEGGPSSGAPPPS-NH2) [Compound No. 29]	5.8 pM	7.2 pM	9.6 pM
H[Aib]HGTFTSDYSIYLEKQAAEEFVQWLLEGGPSSGAPPPS-NH2 (not fully specified (residue 16); printed as H-Aib-HGTFTSDYSIYLE-K[(2S)-2-amino-6-[[(2S)-2-amino-6-[[(4S)-4-carboxy-4-(19-carboxynonadecanoylamino)butanoyl]amino]hexanoyl]amino]hexanoyl]-QAAEEFVQWLLEGGPSSGAPPPS-NH2) [Compound No. 27]	0.8 pM	2.5 pM	55 pM
H[Aib]HGTFTSDYSYYLEKQAA[Aib]EFVQWLLEGGPSSGAPPPS-NH2 (not fully specified (residue 16); printed as H-Aib-HGTFTSDYSYYLE-K[(2S)-2-amino-6-[[(2S)-2-amino-6-[[(4S)-4-carboxy-4-[[4-[(19-carboxynonadecanoylamino)methyl]cyclohexanecarbonyl]amino]butanoyl]amino]hexanoyl]amino]hexanoyl]-QAA-Aib-EFVQWLLEGGPSSGAPPPS-NH2) [Compound No. 25]	4.6 pM	6.9 pM	25.2 pM
H[Aib]HGTFTSDYSIYLEKKAA[Aib]EFVQWLLEGGPSSGAPPPS-NH2 (not fully specified (residue 16); printed as H-Aib-HGTFTSDYSIYLE-K[2-[2-[2-[[2-[2-[2-[[(4S)-4-carboxy-4-(19-carboxynonadecanoylamino)butanoyl]amino]ethoxy]ethoxy]acetyl]amino]ethoxy]ethoxy]acetyl]-KAA-Aib-EFVQWLLEGGPSSGAPPPS-NH2) [Compound No. 34]	2.6 pM	8.7 pM	24.7 pM
H[Aib]HGTFTSDYSYYLEKQAA[Aib]EFVQWLLEGGPSSGAPPPS-NH2 (not fully specified (residue 16); printed as H-Aib-HGTFTSDYSYYLE-K[(2S)-2-amino-6-[[(2S)-2-amino-6-[[(4S)-4-carboxy-4-(19-carboxynonadecanoylamino)butanoyl]amino]hexanoyl]amino]hexanoyl]-QAA-Aib-EFVQWLLEGGPSSGAPPPS-NH2) [Compound No. 26]	3.1 pM	6.5 pM	13.6 pM
H[Aib]HGTFTSDYSYYLEKQAA[Aib]EFVQWLLEGGPSSGAPPPS-NH2 (not fully specified (residue 16); printed as H-Aib-HGTFTSDYSYYLE-K[(2S)-2-amino-6-[[(2S)-2-amino-6-[[(4S)-4-carboxy-4-(17-carboxyheptadecanoylamino)butanoyl]amino]hexanoyl]amino]hexanoyl]-QAA-Aib-EFVQWLLEGGPSSGAPPPS-NH2) [Compound No. 32]	1.6 pM	3.5 pM	10.3 pM
Y[Aib]QGTFTSDYSIYLEKQAAQEFVQWLLEGGPSSGAPPPS-NH2 (not fully specified (residue 16); printed as Y-Aib-QGTFTSDYSIYLE-K[2-[2-[2-[[2-[2-[2-[[(4S)-4-carboxy-4-[[4-[(19-carboxynonadecanoylamino)methyl]cyclohexanecarbonyl]amino]butanoyl]amino]ethoxy]ethoxy]acetyl]amino]ethoxy]ethoxy]acetyl]-QAAQEFVQWLLEGGPSSGAPPPS-NH2) [Compound No. 20]	5.1 pM	8.1 pM	147 pM
H[Aib]HGTFTSDYSIYLEKQAAQEFVQWLLEGGPSSGAPPPS-NH2 (not fully specified (residue 16); printed as H-Aib-HGTFTSDYSIYLE-K[(2S)-2-amino-6-[[(2S)-2-amino-6-[[(4S)-4-carboxy-4-[[4-[(19-carboxynonadecanoylamino)methyl]cyclohexanecarbonyl]amino]butanoyl]amino]hexanoyl]amino]hexanoyl]-QAAQEFVQWLLEGGPSSGAPPPS-NH2) [Compound No. 23]	2 pM	5.1 pM	18.3 pM
H[Aib]HGTFTSDYSIYLEKQKA[Aib]EFVQWLLEGGPSSGAPPPS-NH2 (not fully specified (residue 16); printed as H-Aib-HGTFTSDYSIYLE-K[(2S)-2-amino-6-[[(2S)-2-amino-6-[[(4S)-4-carboxy-4-(19-carboxynonadecanoylamino)butanoyl]amino]hexanoyl]amino]hexanoyl]-QKA-Aib-EFVQWLLEGGPSSGAPPPS-NH2) [Compound No. 35]	5.2 pM	13.9 pM	5 pM
H[Aib]HGTFTSDYSYYLEKKAA[Aib]EFVQWLLEGGPSSGAPPPS-NH2 (not fully specified (residue 16); printed as H-Aib-HGTFTSDYSYYLE-K[(2S)-2-amino-6-[[(2S)-2-amino-6-[[(4S)-4-carboxy-4-(19-carboxynonadecanoylamino)butanoyl]amino]hexanoyl]amino]hexanoyl]-KAA-Aib-EFVQWLLEGGPSSGAPPPS-NH2) [Compound No. 31]	3 pM	9 pM	7.7 pM
H[Aib]QGTFTSDYSIYLEKQAA[Aib]EFVQWLLEGGPSSGAPPPS-NH2 (not fully specified (residue 16); printed as H-Aib-QGTFTSDYSIYLE-K[(2S)-2-amino-6-[[(2S)-2-amino-6-[[(4S)-4-carboxy-4-(19-carboxynonadecanoylamino)butanoyl]amino]hexanoyl]amino]hexanoyl]-QAA-Aib-EFVQWLLEGGPSSGAPPPS-NH2) [Compound No. 19]	1.7 pM	55 pM	357 pM
H[Aib]HGTFTSDYSIYLEKQYA[Aib]EFVQWLLEGGPSSGAPPPS-NH2 (not fully specified (residue 16); printed as H-Aib-HGTFTSDYSIYLE-K[(2S)-2-amino-6-[[(2S)-2-amino-6-[[(4S)-4-carboxy-4-(19-carboxynonadecanoylamino)butanoyl]amino]hexanoyl]amino]hexanoyl]-QYA-Aib-EFVQWLLEGGPSSGAPPPS-NH2) [Compound No. 24]	6.8 pM	7.7 pM	13.1 pM
H[Aib]HGTFTSDYSIYLDKQAA[Aib]EFVQWLLEGGPSSGAPPPS-NH2 (not fully specified (residue 16); printed as H-Aib-HGTFTSDYSIYLD-K[(2S)-2-amino-6-[[(2S)-2-amino-6-[[(4S)-4-carboxy-4-(19-carboxynonadecanoylamino)butanoyl]amino]hexanoyl]amino]hexanoyl]-QAA-Aib-EFVQWLLEGGPSSGAPPPS-NH2) [Compound No. 28]	4.5 pM	7.7 pM	16.7 pM
H[Aib]HGTFTSDYSKYLEKQAA[Aib]EFVQWLLEGGPSSGAPPPS-NH2 (not fully specified (residue 16); printed as H-Aib-HGTFTSDYSKYLE-K[(2S)-2-amino-6-[[(2S)-2-amino-6-[[(4S)-4-carboxy-4-(19-carboxynonadecanoylamino)butanoyl]amino]hexanoyl]amino]hexanoyl]-QAA-Aib-EFVQWLLEGGPSSGAPPPS-NH2) [Compound No. 36]	1.8 pM	9.3 pM	11.4 pM
H[Aib]HGTFTSDYSIYLEKQAA[Aib]EFVQWLLEGGPSSGAPPPS-NH2 (not fully specified (residue 16); printed as H-Aib-HGTFTSDYSIYLE-K[(2S)-2-amino-6-[[(2S)-2-amino-6-[[(4S)-4-carboxy-4-(19-carboxynonadecanoylamino)butanoyl]amino]hexanoyl]amino]hexanoyl]-QAA-Aib-EFVQWLLEGGPSSGAPPPS-NH2) [Compound No. 22]	2 pM	7.1 pM	48.7 pM
